1 molecule from US20140011978A1 (EPFL TTO, published 2014) can be followed below.

Common to all, as to assay: ELISA: growth factor coated, Fg fragment in solution, A450 (methods analogous to Example 3)
In general terms: In an ELISA, binding on a coated surface is turned into a signal by an enzyme label.

The target of one experiment is T1, BDNF (UniProt P23560 129-247).
T1 construct: also called brain-derived neurotrophic factor
T1 sequence (looked up): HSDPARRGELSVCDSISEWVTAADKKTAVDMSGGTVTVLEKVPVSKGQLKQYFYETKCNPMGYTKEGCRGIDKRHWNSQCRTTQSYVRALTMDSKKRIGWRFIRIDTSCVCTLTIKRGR
How it is done: (§1) ELISA plates were coated with cytokines or BSA and further incubated with TNC III1-5 to analyze binding of TNC III1-5 to a wide variety of cytokines. […] A large amount of heparin (4 μM) impaired binding of TNC III1-5 to these cytokines. Results are depicted in FIG. 3. Method: 50 nM of cytokine was coated for (1 hr, 37° C.). After blocking with 2% BSA (1 hr, RT). 100 nM TNC III1-5 was applied in PBST (0.05% tween, 0.1% bovine serum albumin (BSA)) (1 hr, RT). TNC III1-5 was detected with horseradish peroxidase (HRP)-anti-HIS in PBST (1 hr, RT) and developed with 3,3′,5,5′-tetramethylbenzidine (TMB), a soluble colorimetric HRP […]. Addition of sulfuric acid stop solution changes the color to yellow, enabling accurate measurement of the intensity at 450 nm using a spectrophotometer or plate reader. […] Heparin (4 μM) was added to TNC III1-5 to test the effect of blocking the heparin binding site of TNC III1-5, which has been defined as domain TNC III5 (Weber, Zimmermann, et al., 1995).
(§2) ELISA plates were coated with cytokines or BSA and further incubated with Fg β15-66 to analyze binding of […] to a wide variety of cytokines. […] Results are depicted in FIG. 4. Method: The methods were analogous to those used in Example 3.

The next experiment has as its target T2, FGF-6 (UniProt P10767 38-208, limits assumed).
T2 sequence (looked up): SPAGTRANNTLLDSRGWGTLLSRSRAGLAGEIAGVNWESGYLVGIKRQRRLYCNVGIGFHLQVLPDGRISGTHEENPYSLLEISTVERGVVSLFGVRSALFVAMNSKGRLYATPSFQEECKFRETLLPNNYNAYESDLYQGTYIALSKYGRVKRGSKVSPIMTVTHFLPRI
How it is done:
as §1, §2

The next experiment deals with T3, PlGF-1 (UniProt P49763-2 19-149).
T3 sequence (looked up): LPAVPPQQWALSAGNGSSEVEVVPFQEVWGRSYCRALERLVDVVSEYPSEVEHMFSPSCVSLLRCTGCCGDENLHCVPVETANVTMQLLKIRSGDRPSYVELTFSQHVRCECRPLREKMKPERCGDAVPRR
How it is done:
as §1, §2

Another experiment concerns the target EGF. How it is done: as §1, §2
In the next experiment the target is T4, FGF-7 (UniProt P21781 32-194).
T4 sequence (looked up): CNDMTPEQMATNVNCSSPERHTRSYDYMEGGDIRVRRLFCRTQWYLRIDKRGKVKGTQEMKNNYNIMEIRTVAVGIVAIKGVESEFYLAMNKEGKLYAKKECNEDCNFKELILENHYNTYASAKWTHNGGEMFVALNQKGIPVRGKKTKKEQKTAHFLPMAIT
How it is done:
as §1, §2

The next experiment addresses T5, PDGF-BB (UniProt P01127 82-190).
T5 construct: The name implies a homodimer of B chains
Here is the method: as §1, §2

In another experiment the target is T6, NT-3 (UniProt P20783 139-257).
T6 sequence (looked up): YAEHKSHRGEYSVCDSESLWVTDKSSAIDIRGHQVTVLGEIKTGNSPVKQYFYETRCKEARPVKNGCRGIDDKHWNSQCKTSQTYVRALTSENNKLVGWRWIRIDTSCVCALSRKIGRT
How it is done:
as §1, §2

Another experiment concerns the target IGF-BP3 (UniProt P17936 28-291). How it is done:
as §1, §2

Another experiment deals with VEGF-A165 (UniProt P15692-4 27-191). How it is done: as §1, §2
Sequence of VEGF-A165 (P15692 other isoform, or with tags, fused parts or gaps limits assumed): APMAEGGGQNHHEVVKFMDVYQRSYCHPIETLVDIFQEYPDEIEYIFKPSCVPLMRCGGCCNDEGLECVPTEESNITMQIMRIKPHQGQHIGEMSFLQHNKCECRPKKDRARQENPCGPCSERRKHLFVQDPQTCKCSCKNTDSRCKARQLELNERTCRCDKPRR
Another experiment concerns the target T7, FGF-10 (UniProt O15520 38-208).
T7 sequence (looked up): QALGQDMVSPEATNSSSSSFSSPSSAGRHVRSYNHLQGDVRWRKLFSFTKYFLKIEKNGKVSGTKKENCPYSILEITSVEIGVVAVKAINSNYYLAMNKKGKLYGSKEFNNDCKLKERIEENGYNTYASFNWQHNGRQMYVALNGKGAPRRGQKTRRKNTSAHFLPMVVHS
Here is the method: as §1, §2

The next experiment deals with PDGF-DD (UniProt Q9GZP0 250-370). How it is done: as §1, §2
Sequence of PDGF-DD (Q9GZP0 250-370): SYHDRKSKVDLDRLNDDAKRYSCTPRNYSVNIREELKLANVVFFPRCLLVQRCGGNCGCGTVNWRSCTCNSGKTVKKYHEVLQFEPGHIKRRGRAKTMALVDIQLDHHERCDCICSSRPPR
Another experiment deals with T8, TGF-β3 (Natural form is a disulfide-linked homodimer; one protomer is given.).
T8 chain: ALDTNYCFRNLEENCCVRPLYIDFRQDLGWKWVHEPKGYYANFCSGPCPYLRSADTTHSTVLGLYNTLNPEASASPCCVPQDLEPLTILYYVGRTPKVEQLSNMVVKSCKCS
How it is done:
as §1, §2

The target of another experiment is BMP-2 (UniProt P12643 283-396). How it is done:
as §1, §2

Sequence of BMP-2 (P12643 283-396 limits assumed): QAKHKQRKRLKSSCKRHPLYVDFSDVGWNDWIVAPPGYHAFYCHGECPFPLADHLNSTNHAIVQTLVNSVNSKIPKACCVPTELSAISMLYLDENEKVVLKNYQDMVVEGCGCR
Sequence of IGF-BP3 (P17936 28-291 limits assumed): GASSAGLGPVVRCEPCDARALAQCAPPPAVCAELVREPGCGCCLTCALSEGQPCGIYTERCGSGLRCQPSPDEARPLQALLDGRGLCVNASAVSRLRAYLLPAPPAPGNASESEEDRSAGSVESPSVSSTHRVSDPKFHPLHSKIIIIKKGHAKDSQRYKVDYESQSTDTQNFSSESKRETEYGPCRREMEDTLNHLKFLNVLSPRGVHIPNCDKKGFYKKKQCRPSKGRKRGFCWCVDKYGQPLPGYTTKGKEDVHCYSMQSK
T5 sequence (P01127 82-190 limits assumed): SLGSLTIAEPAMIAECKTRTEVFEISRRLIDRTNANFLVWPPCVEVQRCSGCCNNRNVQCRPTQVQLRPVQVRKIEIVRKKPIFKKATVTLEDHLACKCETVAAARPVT

B1: Fg β15-66 (other)
chain: GSNQEQVSPLGHRPLDKKREEAPSLRPAPPPISGGGYRARPAKAAATQKKVERKAPDAGGCGHHHHHH
notes: Made as a GST fusion; GST was cleaved off; also called TG-Fg β15-66; fibrinogen β15-66 domain
Take B1: the binding result with BDNF is recorded as “binds”; with FGF-6, “no binding”; with PlGF-1 it was “no binding”; in the experiment with EGF, “no binding”; with FGF-7, “binds”; in the experiment with PDGF-BB, “binds”. The binding result with NT-3 was “binds”; with IGF-BP3, “binds”; in the experiment with VEGF-A165, “binds”; with FGF-10, “binds”; with PDGF-DD, “binds”; with TGF-β3 it was “no binding”. In addition, the binding result in the experiment with BMP-2 is listed as “binds”.
